Source: patent publication US20120003235A1 (published 2012)

T1: soluble Flag-tagged LTα1β2 (UniProt P01374 35-205, limits assumed)
T1 construct: Soluble, Flag-tagged heterotrimer captured on anti-Flag M2 in Biacore; also called Ligand
T1 sequence 1: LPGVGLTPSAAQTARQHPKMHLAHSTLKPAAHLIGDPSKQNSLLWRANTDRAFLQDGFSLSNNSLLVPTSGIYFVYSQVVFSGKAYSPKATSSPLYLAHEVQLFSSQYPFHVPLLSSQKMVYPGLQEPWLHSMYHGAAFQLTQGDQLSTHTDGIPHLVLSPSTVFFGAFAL
T1 sequence 2: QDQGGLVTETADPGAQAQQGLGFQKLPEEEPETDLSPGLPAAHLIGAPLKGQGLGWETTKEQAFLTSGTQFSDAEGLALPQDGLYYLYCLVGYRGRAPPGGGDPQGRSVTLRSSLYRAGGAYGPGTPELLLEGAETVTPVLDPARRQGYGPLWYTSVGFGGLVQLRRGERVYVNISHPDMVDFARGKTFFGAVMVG

B1: mAb 9B4 (antibody, V domains shown)
VH: QVTLKESGPGILQPSQTLSLTCSFSGFSLSTSGMGVSWIRQPSGKGLEWLAHIYWDDDKRYNPSLRSRLTISKDTSRNQVFLKITSVDTADTATYYCARREGYYGSSFDFDVWGAGTTVTVSS
VL: QIVLSQSPAILSASPGEKVTMTCRASSSVSYMIWYQQKPGSSPKPWIYATSSLASGVPTRFSGSGSGTSYSLTISRVEAADAATYYCQQWSYNPLTFGAGTKLELK
notes: Murine monoclonal antibody; only mature variable domains printed; kappa light chain; also called LT 9B4; LT9B4
B2: mAb LT102 (P1G8.2) (antibody, V domains shown)
VH: EVKLVESGGGLVKPGGSLKLSCAVSGFTFSDYYMYWIRQTPEKRLEWVATIGDGTSYTHYPDSVQGRFTISRDYATNNLYLQMTSLRSEDTALYYCARDLGTGPFAYWGQGTLVTVSA
VL: DVLMTQTPRSLPVSLGDQASISCRSSQNIVHSNGNTYLEWYLQKPGQSPKLLIYKVSNRFSGVPDRFSGSGSGTDFTLKISRVEAEDLGVYYCFQGSHFPWTFGGGTKLEIK
notes: only mature variable domains printed; also called LT012
B3: monomeric LTβR (receptor, UniProt P36941 28-227, looked up)
chain: SQPQAVPPYASENQTCRDQEKEYYEPQHRICCSRCPPGTYVSAKCSRIRDTVCATCAENSYNEHWNYLTICQLCRPCDPVMGLEEIAPCTSKRKTQCRCQPGMFCAAWALECTHCELLSDCPPGTEAELKDEVGKGNNHCVPCKAGHFQNTSSPSARCQPHTRCENQGLVEAAPGTAQSDTTCKNPLEPLPPEMSGTMLM
notes: Injected at 20 µM in Biacore; also called LTbR
B4: mAb LT105 (P2E9.7) (antibody, V domains shown)
VH: DVQLQESGPGLVKPSQSLSLTCSVTGYSITSGYYWNWIRQFPGNKLEGMGYISYDGSNNYNPSLKNRISITRDSSKNQFFLKLNSVTAEDSGTYYCARDAYSYGMDYWGQGTSVTVSS
VL: DIVLTQSPASLAVSLGQRATISCRASESVDNYGISFMHWYQQKPGQPPKLLIYRASNLESGIPARFSGSGSRTDFTLTINPVETDDVATFYCQQSNKDPYTFGGGTKLEIK
notes: only mature variable domains printed
B5: LT105 Fab fragment (Fab, V domains shown)
VH: B4 VH
VL: B4 VL

Experiments:
[1] = target: T1, soluble Flag-tagged LTα1β2; assay: SPR (Biacore 3000), Flag-LTα1β2 captured on anti-Flag M2 chip; apparent affinity of intact antibody
[2] = target: T1, soluble Flag-tagged LTα1β2; assay: SPR (Biacore 3000), Flag-LTα1β2 captured on anti-Flag M2 chip; LTβR binding site 2
[3] = target: T1, soluble Flag-tagged LTα1β2; assay: SPR (Biacore 3000), Flag-LTα1β2 captured on anti-Flag M2 chip; LTβR binding site 1
[4] = target: T1, soluble Flag-tagged LTα1β2; assay: SPR (Biacore 3000), Flag-LTα1β2 captured on anti-Flag M2 chip; Fab fragment

Row | Binder | Kd [1] | other results
1 | B1 | ≤ 0.3 nM | –
2 | B2 | ≤ 0.3 nM | –
3 | B3 | – | Kd [2]: ~1500 nM; Kd [3]: ~50 nM
4 | B4 | ≤ 0.3 nM | –
5 | B5 | – | Kd [4]: ≥ 2 nM
